Consider 1 molecule from PMC6018636, “Mutually exclusive acetylation and ubiquitylation of the splicing factor SRSF5 control tumor growth” (Nature Communications, 2018).

The target of this assay is T1, His-Smurf1 (UniProt Q9HCE7-2 1-731).
T1 construct: Smurf1, inserted into pET-28a; also called His-tagged Smurf1; source: Escherichia coli BL21, purified
Briefly: pull-down; bacteria-expressed GST-tagged protein immobilised on glutathione-Sepharose 4B beads, incubated with His-tagged protein for 8 h at 4 °C; washed with GST-binding buffer (100 mM NaCl, 50 mM NaF, 2 mM EDTA, 1% NP-40); immunoblotting. Particulars: both partners purified.

T1 sequence (Q9HCE7 other isoform, or with tags, fused parts or gaps): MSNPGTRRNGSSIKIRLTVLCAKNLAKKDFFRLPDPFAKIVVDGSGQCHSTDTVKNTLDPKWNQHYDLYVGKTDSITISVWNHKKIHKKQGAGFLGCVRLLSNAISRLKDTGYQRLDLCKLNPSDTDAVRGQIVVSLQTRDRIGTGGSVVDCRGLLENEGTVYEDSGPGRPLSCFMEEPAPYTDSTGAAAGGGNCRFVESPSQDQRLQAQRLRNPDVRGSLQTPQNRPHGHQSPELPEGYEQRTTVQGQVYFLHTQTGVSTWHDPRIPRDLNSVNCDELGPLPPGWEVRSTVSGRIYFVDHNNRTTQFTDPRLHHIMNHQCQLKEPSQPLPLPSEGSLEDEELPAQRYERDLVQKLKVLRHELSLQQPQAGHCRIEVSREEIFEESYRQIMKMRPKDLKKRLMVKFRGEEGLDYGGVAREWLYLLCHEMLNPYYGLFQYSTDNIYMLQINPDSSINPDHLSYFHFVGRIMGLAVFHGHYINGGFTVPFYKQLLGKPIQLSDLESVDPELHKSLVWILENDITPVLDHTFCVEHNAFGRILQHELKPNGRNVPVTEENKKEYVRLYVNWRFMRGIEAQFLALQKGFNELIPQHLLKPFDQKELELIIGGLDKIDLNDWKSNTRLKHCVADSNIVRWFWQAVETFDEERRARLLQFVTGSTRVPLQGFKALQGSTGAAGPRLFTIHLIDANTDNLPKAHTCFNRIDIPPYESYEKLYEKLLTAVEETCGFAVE

B1: GST-SRSF5 (natural protein, UniProt Q13243 1-272, looked up)
chain: MSGCRVFIGRLNPAAREKDVERFFKGYGRIRDIDLKRGFGFVEFEDPRDADDAVYELDGKELCSERVTIEHARARSRGGRGRGRYSDRFSSRRPRNDRRNAPPVRTENRLIVENLSSRVSWQDLKDFMRQAGEVTFADAHRPKLNEGVVEFASYGDLKNAIEKLSGKEINGRKIKLIEGSKRHSRSRSRSRSRTRSSSRSRSRSRSRSRKSYSRSRSRSRSRSRSKSRSVSRSPVPEKSQKRGSSSRSKSPASVDRQRSRSRSRSRSVDSGN
notes: splicing factor SRSF5, inserted into pGEX-6P-1; also called GST–SRSF5 fusion protein; source: Escherichia coli BL21, purified; immobilised on glutathione-Sepharose 4B beads
Take B1: the binding result was “binds”.
